Patent publication US20240293316

Key:
[1] = tested on: NorMMPR (norbornene monomer functionalized with the random peptide R-MMP)
[2] = tested on: NorMMPD (norbornene monomer functionalized with the D-MMP peptide)
[3] = tested on: NorMMPL (norbornene monomer functionalized with the L-MMP peptide)

Chain of MMP-9 (chain, as listed by the source): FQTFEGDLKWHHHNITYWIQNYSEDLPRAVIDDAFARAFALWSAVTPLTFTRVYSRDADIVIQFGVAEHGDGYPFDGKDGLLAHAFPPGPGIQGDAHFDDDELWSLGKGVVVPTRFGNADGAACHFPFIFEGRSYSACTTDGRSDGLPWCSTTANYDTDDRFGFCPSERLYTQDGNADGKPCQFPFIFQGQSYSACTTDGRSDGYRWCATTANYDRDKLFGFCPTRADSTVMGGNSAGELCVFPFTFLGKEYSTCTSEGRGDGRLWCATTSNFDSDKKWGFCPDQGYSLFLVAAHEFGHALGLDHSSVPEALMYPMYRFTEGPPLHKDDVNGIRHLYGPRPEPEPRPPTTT

## MMP-9
[1]
  MMP-9 cleavage assay (HPLC after 24 hours of incubation with MMP-9 at 37° C.; 0.5 µM MMP-9 : 500 µM NorMMP): remained intact
[2]
  MMP-9 cleavage assay (HPLC after 24 hours of incubation with MMP-9 at 37° C.; 0.5 µM MMP-9 : 500 µM NorMMP): remained intact
[3]
  MMP-9 cleavage assay (HPLC after 24 hours of incubation with MMP-9 at 37° C.; 0.5 µM MMP-9 : 500 µM NorMMP): NorMMPL was completely cleaved
